Measurements published in paper PMC7299284, “Studies in humanized mice and convalescent humans yield a SARS-CoV-2 antibody cocktail” (Science (New York, N.y.), 2020).

Molecular target: T1, SARS-CoV-2 spike RBD (as in the cryo-EM complex with REGN10933 and REGN10987 Fabs) (SARS-CoV-2, UniProt P0DTC2)
T1 construct: also called SARS-CoV-2 RBD
Assay: cryo-EM structure; single-particle cryo-EM of SARS-CoV-2 spike RBD bound to Fab fragments of REGN10933 and REGN10987, nominal resolution 3.9 Å
Details: both partners purified

| Binder | binding result |
| --- | --- |
| Fab fragment of REGN10933 (Fab, V domains shown, also called REGN10933 Fab) VH: QVQLVESGGGLVKPGGSLRLSCAASGFTFSDYYMSWIRQAPGKGLEWVSYITYSGSTIYYADSVKGRFTISRDNAKSSLYLQMNSLRAEDTAVYYCARDRGTTMVPFDYWGQGTLVTVSS VL: DIQMTQSPSSLSASVGDRVTITCQASQDITNYLNWYQQKPGKAPKLLIYAASNLETGVPSRFSGSGSGTDFTFTISGLQPEDIATYYCQQYDNLPLTFGGGTKVEIK | binds |
| Fab fragment of REGN10987 (Fab, V domains shown, also called REGN10987 Fab) VH: QVQLVESGGGVVQPGRSLRLSCAASGFTFSNYAMYWVRQAPGKGLEWVAVISYDGSNKYYADSVKGRFTISRDNSKNTLYLQMNSLRTEDTAVYYCASGSDYGDYLLVYWGQGTLVTVSS VL: QSALTQPASVSGSPGQSITISCTGTSSDVGGYNYVSWYQQHPGKAPKLMIYDVSKRPSGVSNRFSGSKSGNTASLTISGLQSEDEADYYCNSLTSISTWVFGGGTKLTVL | binds |
